We go through one substance from US7220822.

In this experiment the target is CD80-Ig (extracellular domain of CD80 fused with the constant region of mouse IgG1 heavy chain) (mouse). In words: SPR, CD28-Ig (187 nM to 12 µM) over CD80-Ig captured by anti-mouse IgG1 Fc. (In SPR one partner is held on a chip, and binding of the other changes the refractive index at the surface.)

With CD28-Ig (Fc fusion), the koff – broadly, a measure of how fast the partners let go of each other – is 0.563 s⁻¹ and the on-rate (kon) (commonly the rate constant with which the complex forms) came out at 138000 M⁻¹ s⁻¹.
